The values that follow come from publication PMC9598941.

In data set [1] the target is T1, CcpA (catabolite control protein A) (Staphylococcus aureus XN108 (clinical isolate)?) (UniProt P99175).
T1 sequence: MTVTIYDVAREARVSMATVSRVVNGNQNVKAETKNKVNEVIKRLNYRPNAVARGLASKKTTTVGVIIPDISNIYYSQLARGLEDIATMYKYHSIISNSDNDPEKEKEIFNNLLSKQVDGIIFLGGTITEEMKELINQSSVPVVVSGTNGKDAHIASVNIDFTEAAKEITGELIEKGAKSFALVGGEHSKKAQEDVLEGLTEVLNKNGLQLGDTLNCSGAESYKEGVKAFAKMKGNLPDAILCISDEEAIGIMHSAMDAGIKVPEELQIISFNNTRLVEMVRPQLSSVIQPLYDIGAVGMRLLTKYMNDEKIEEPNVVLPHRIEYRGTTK
As to the kind of experiment: competition.

Data set [2] has as its target T1, CcpA (catabolite control protein A) (Staphylococcus aureus XN108 (clinical isolate)?). As to the kind of experiment: EMSA. (A gel shift assay detects complexes by their altered migration in electrophoresis.)

For the sequence “GGCGCTTCCTCCAAATATAATATATTTGTTTTTATTTATCTCTTTTTATAGCTAACACCCTTATTTAAGATGATAAATATCAACAACTTCATTTTATATTGAGAAAATATTAAAAATCAATAAAATATTAAAAGAAACTAAACTTACATTAAAAAATAATTAACAAATATTTAACATTTTAACCTAAGAA (double strand) [Psak]”, the binding entry in data set [1] and in data set [2] was “binds” throughout.
